# Source: patent publication US20250313612A1 (Adimab, published 2025)
# Columns and labels:
# [1] = molecular target: T1, RSV F ectodomain stabilized in the postfusion conformation (F ΔFP), subtype B (Respiratory syncytial virus subtype B, UniProt P13843 26-109; P13843 147-524); test: BLI, IgG on AHQ sensor, 100 nM antigen
# T1 construct: extracellular domain; trimer; also called Postfusion subtype B; postF subtype B
# [2] = molecular target: T2, RSV F ectodomain stabilized in the postfusion conformation (F ΔFP), subtype A (Respiratory syncytial virus subtype A, UniProt P03420 26-109; P03420 147-524); test: BLI, IgG on AHQ sensor, 100 nM antigen
# T2 construct: extracellular domain; trimer; furin-cleaved; also called Postfusion subtype A
# [3] = molecular target: RSV F protein of recombinant mKate-RSV, subtype A (strain A2) (Respiratory syncytial virus subtype A …, UniProt P03420 26-574); test: cell-based or functional assay
# [4] = molecular target: RSV F protein of recombinant mKate-RSV, subtype B (18537) (Respiratory syncytial virus subtype B …, UniProt P13843 26-574); test: cell-based or functional assay
Binder,Kd [1] [nM],Kd [2] [nM],Neut IC50 subtype A [3] [µg/mL],Neut IC50 subtype B [4] [µg/mL]
"ADI-14446 (antibody, V domains shown, full-length IgG (yeast-expressed); also called Antibody Number 9; Ab# 9) VH: QVQLVQSGAEVKKPGSSVKVSCEASGDTFTSYAVIWVRQTPGQGLEFMGSIIPIFQTINYAPKFQGRVTLSADGSTSTVFMELRNLRSEDTAIYFCATKRYCTSPSCHGLWYFNLWGRGTMVTVSS VL: ETTLTQSPISLSVTPGEPASISCRSSKSLLDSDDGNTYLDWYLQKPGQSPQILIYMLSYRASGVPDRFSGSGSGTDFTLKISRVEAEDVGVYYCMQRIEYPYTFGQGTKVEIK",0.137,0.213,0.091,0.187
"ADI-14452 (antibody, V domains shown, full-length IgG (yeast-expressed); also called Antibody Number 15; Ab# 15) VH: QVQLVQSGAEVKKPGSSVKVSCEASGDTFTSYAVIWVRQAPGQGLEWMGSIIPIFQTINYAPKFQGRVTLSADGSTRTVYMELGSLRSEDTAIYFCATKRYCTSPSCHGLWYFNLWGRGTLVTVSS VL: DIVMTQSPLSLPVTPGEPASISCRSSKSLLDSDDGNTYLDWYLQKPGQSPQILIYMLSHRASGVPDRFSGSGSGTDFTLKISRVEAEDVGVYYCMQRVEYPYSFGQGTKVEIK",0.139,0.217,0.076,0.157
"ADI-14450 (antibody, V domains shown, full-length IgG (yeast-expressed); also called Antibody Number 13; Ab# 13) VH: QVQLVQSGGGLVKPGGSRRLACAASGFIFRNAWMSWVRQAPGKGLEWVGRIKRTSEGGSVDYATPVQGRFSISRDDSRNTLYLQMHSLAPDDTAVYYCSTGPPYSYFDSTGYSVVDYWGQGTLVTVSS VL: QSVLTQPPSASGTPGQRVTISCSASSSNIGDNYFYWYQQLPGKAPTLLMYGSDQRSSGVPDRFSGSQSGTSASLAISGLRSEDEAAYYCAAWDDSLSGPVFGGGTQLTVL",0.142,0.227,0.195,0.315
"ADI-14523 (antibody, V domains shown, full-length IgG (yeast-expressed); also called Antibody Number 83; Ab# 83) VH: EVQLVESGGGLVKPGGSLRLSCAASGFIFRNAWMSWVRQAPGKGLEWVGRIKRTSEGGSVDYATPVQGRFSISRDDSRNTLYLQMNSLETDDTAVYYCSTGPPYSYFDSSGYSVVDYWGQGTLVTVSS VL: QSVLTQPPSASGTPGQRVTISCSASSSNIGDNYFYWYQQLPGKAPTLLMYGSDQRSSGVPDRFSGSQSGTSASLAISGLRSEDEADYYCAAWDDSLSGPVFGGGTKLTVL",0.131,0.192,0.239,0.151
"ADI-14447 (antibody, V domains shown, full-length IgG (yeast-expressed); also called Antibody Number 10; Ab# 10) VH: QVQLVQSGAEMKKPGSSVTVSCKASGVPFTSYTYSWVRQAPGQGLEWMGRVLPVIGSAKYPQKFQGTVTITADKSTSTIYLQLSSLRPEDTAIYFCAGSLLAGYDREFDSWGQGTLVTVSS VL: DIQMTQSPSSLSASVGDRITITCRASQGISNWLAWYQQKPGKAPKSLIYEASTLQSGVSSRFSGSGSGTHFTLTIASLQPEDFATYYCQQYYIYPLTFGGGTKLEIK",0.271,0.339,0.143,0.372
"ADI-14513 (antibody, V domains shown, full-length IgG (yeast-expressed); also called Antibody Number 74; Ab# 74) VH: QVQLVQSGSEVKRPGSSVKVSCKASGVALTTVAVNWVRQVPGQGPEWIGGILIGFGKVRQAQKFENRVTFTADASRNTAYMELSGLRSEDTAVYYCAIIDPQDCTRASCFWVNWLAPWGHGTLVTVSS VL: DIRVTQSPGTLTLSPGERASLSCRASESILNGNLAWYQQKPGQAPRLLIYAASSRATDIPDRFSGSGSGTDFTLTISRLEPQDFAVYYCQQYGSAPITFGQGTRLEIK",0.962,1.21,4.81,2.2
"ADI-14445 (antibody, V domains shown, full-length IgG (yeast-expressed); also called Antibody Number 8; Ab# 8) VH: EVQLLESGAVMKRPGSSVRVSCRASGVTLTTVSVNWVRQVPGQGPEWIGGILIGFGKVRQAQKFENRVTLTADASRNTAYMELSGLTSDDTAVYYCAIIDPQDCTRASCFWVNWLDPWGQGTLVTVSS VL: DIRMTQSPGTLTLSPGERATLSCRASQSILSGNLAWYQQKPGQAPRLLISAASTRATDIPDRFSGSGSGTDFTLTITRLEPQDFAVYYCQQYDSAPITFGQGTRLEIK",15.2,4.92,> 10,1.21
"ADI-14511 (antibody, V domains shown, full-length IgG (yeast-expressed); also called Antibody Number 72; Ab# 72) VH: EVQLLESGAEVKKPGSSVKVSCKVAGGTFSDYAISWVRQAPGQGLEYLGGIIPAFKRAMYPRKFQDRVTITADESTSTAYMELRGLRSEDTALYYCARPAGDFGDLKWLRSPFDYWGQGTLVTVSS VL: DIVLTQSPATLSVSPGERATLSCRASEGVGINLAWYQQKPGQAPRLLIYGASTRATDIPARFSGSGSGTDFTLTISSLQSEDFAVYYCQQYNDWPPQLTFGPGTKVDIK",1.25,0.988,> 10,7.04
"ADI-14512 (antibody, V domains shown, full-length IgG (yeast-expressed); also called Antibody Number 73; Ab# 73) VH: EVQLVESGAEVKKPGSSVKVSCKVVGGSFSNYGISWVRQAPGQGPEWMGGIIPAFKTAKYAKKFEDRVTITADESTSTAYMEVSGLRSDDTALYYCARPERDFGHLKWLRSPFDYWGQGTLVTVSS VL: ETTLTQSPATLSVSPGERVTLSCRASQGVSINLAWYQQKPGQAPRLLIYGASTRATDIPARFSGSGSGTDFTLTISSLQSEDFAVYYCQQYNDWPPQLTFGPGTKVEIK",0.587,2.67,> 10,> 10
"ADI-14439 (antibody, V domains shown, full-length IgG (yeast-expressed); also called Antibody Number 2; Ab# 2) VH: QVQLVQSGAEVKKPGSSVRVSCRASGVTLTTVAVNWVRQVPGQGPEWIGGILVGLGKVRLAQKFENRATLRADTSSNTAYMELSGLRFEDTAVYYCAIIDPQDCTAASCFWVNWLDPWGQGTLVTVSS VL: EIVLTQSPGTLTLSPGETATLSCRASQSVLSGYLAWYQQKPGQAPRLLIYAASTRATDIPARFTGSGSATDFTLTISRLEPQDFAVYYCQQYGSAPITFGQGTRLEIK",16.2,5.16,> 10,4.12
"ADI-14453 (antibody, V domains shown, full-length IgG (yeast-expressed); also called Antibody Number 16; Ab# 16) VH: QITLKESGPTVVKPTQTLTLTCTFSGFSLNTRGMGVAWIRQPPGGALEWLALVDWDDDKRYSPSLRSRLTITKDTSKNQVLFTMTTMDPADTATYYCAHIGLYDRGGYYLFYFDFWGQGTLVTVSS VL: DIVLTQSPSSLSASVGDRVTITCRASQSIASYVNWFQQKPGKAPVLLMFASSILQSGVPPRFRGSGSGTDFTLTITSLQPEDFATYYCQHTYTTPYIFGRGTKVEIK",0.228,0.261,> 10,> 10
"ADI-14524 (antibody, V domains shown, full-length IgG (yeast-expressed); also called Antibody Number 84; Ab# 84) VH: EVQLVESGGGLVQPGGSLRLSCAASGFSFSDYSMNWVRQAPGKGLEWVSYITPSSRNKFYADSVRGRFTISRDNAENSLYLQMNSLRVEDTAVYYCVRSLHWGAAIERWDVWGQGTTVTVSS VL: EIVLTQSPGTLSLSPGERATLSCRASQSISSSFFAWYQQTPGQAPRLLMYATSSRATGIPDRFSGSGSGTDFTLTISRVEPEDFAVYYCQQSGSSPYTFGQGTKVEIK",0.771,0.826,6.05,6
"ADI-14449 (antibody, V domains shown, full-length IgG (yeast-expressed); also called Antibody Number 12; Ab# 12) VH: EVQLVESGGDLVKPGGSLRLSCEGSGFIFPNAWMSWVRQAPGKGLEWVGRIKSNTDGGTTDYGAPVKGRFTISRDDSTNTMYLHMNSLKTEDTAVYFCSTGPPYKYFDETGYSVVDYWGQGTLVTVSS VL: SYELTQPPSASGTPGQRVIISCSGSTSNSGYNYFYWYQQRPGTAPKLLIYGSDQRPSGVPDRFSGSQSGPSASLAISGLRSEDEAHYYCAAWDDNLSGPVFGGGTKLTVL",0.462,0.204,0.193,0.182
